Experimental findings from patent US20240199755A1, “ANTAGONISTS AND AGONISTS OF THE TRANSFERRIN RECEPTOR-2 FOR USE IN THE TREATMENT OF DISEASES OF THE BONE” (Kymab Limited, priority 2018, published 2024) are described below.

One data set deals with BMPs-2, 4, 6 and 7. The data set is described as follows: SPR binding of BMP ligands to Tfr2-ECD immobilized on the sensor chip. As for the experimental part: For this purpose, Tfr2-ECD is immobilized on a Series S Sensor Chip C1 (GE Healthcare), by means of coupling the amino groups at 25° C. The carboxyl groups on the chip surface are activated for 7 minutes using a mixture of 196 mM 1-ethyl-3-(3-dimethylaminopropyl) carbodiimide-hydrochloride and 50 mM n-hydroxysuccinimide at a flow rate of 10 μl/min. Subsequently, 5 μg/ml Tfr2-ECD, diluted with sodium acetate buffer (pH 4.5), is injected at a flow rate of 5 μl/min up to a relative occupancy of 200 RU. Non-reacted groups are inactivated by injecting 1 M thanolamine-HCl (pH 8.5) for 7 minutes at a flow rate of 10 μl/min. In order to prepare a reference surface, the same procedure is carried out but without Tfr2-ECD being injected.
The binding assays are carried out at 37° C. at a flow rate of 30 μl/min. Each analyte is diluted by a running buffer (HBS-P, pH 7.4 together with 50 nM FeCl3). BMPs are used in a concentration of 50 nM and BMP receptors are used in a concentration of 200 nM. The binding assays are carried out by means of analyte injection for 300 s over the Tfr2-ECD surface, followed by dissociation for 1000 s. The values of the binding level are read out, relative to the baseline, 10 s before the end of the injection and are corrected with respect to the molar mass. Following the dissociation for 1000 s, the chip surface is regenerated for 60 s by means of HBS-P together with 5 M NaCl and 50 mM NaOH and is stabilized for 1000 s. The binding parameters are determined using the Biacore™ T100 evaluation software 2.03.
Tfr2-ECD, BMP-2 and BMP-4 were immobilized onto Series S Sensor Chips C1 (GE Healthcare) via its amine groups at 25° C. […]
For binding analysis, an injection of analyte for 240 s or 300 s over a Tfr2-ECD surface was followed by 1000 s dissociation. The values of the binding levels were recorded from referenced signals 10 s before the end of injection relative to baseline response. […]

Data set [1] in a line: Iron, blood and bone parameters of wild type mice treated systemically with Tfr2-ECD. The class given is in vivo. As for the experimental part:
For systemic Tfr2-ECD treatment, WT mice were treated every other day with Tfr2-ECD intraperitoneally for two weeks. Mice received 250 μg Tfr2-ECD (10 mg/kg BW) per injection for the first 10 days after BMP-2/matrigel injection into the muscle and 125 μg per injection (5 mg/kg BW) for the remaining time. This experiment was performed once with 8-10 mice per group. Drop-weight HO: This experiment was performed according to Liu et al. with minor modifications^65. Female 10-12-week-old WT mice were anesthetized and placed on a ridge of a plastic container over which the right leg was bent so the femur was lying horizontally. Mice received an injection of 1 μg BMP-2 mixed in 50 μl matrigel. Afterwards, a stainless-steel ball of 16 g (16 mm diameter) was dropped from a distance of 80 cm height onto the quadriceps muscle. Mice either received a single dose of 1 μg Tfr2-ECD, which was co-injected with the BMP-2/matrigel mixture, or palovarotene (Hycultec), which was administered daily by oral gavage. Palovarotene was dissolved in DMSO and diluted 1:4 with corn oil. Mice received palovarotene at a dose of 100 μg/mouse for the first five days and 50 μg/mouse for the remainder of the experiment (days 621). One group of mice received ibuprofen via the drinking water at a dose of […] which was changed every other day^66. Mice received methamizole (200 mg/kg) to reduce pain for the entire duration of the experiment. This experiment was performed twice with 6 mice per group.
Bone microarchitecture was analyzed using the vivaCT40 (Scanco Medical, Switzerland). The femur and the fourth lumbar vertebra were imaged at a resolution of 10.5 μm with X-ray energy of 70 kVp, […], and an integration time of 200 ms. The trabecular bone in the femur was assessed in the metaphysis 20 slices below the growth plate using 150 slices. In the vertebral bone, 150 slices were measured between both growth plates. The cortical bone was determined in the femoral midshaft (150 slices). Pre-defined scripts from Scanco were used for the evaluation.
The iron concentration in the liver was determined using 20 mg of dried liver tissue as previously published^8. The iron concentration in the bone was determined using atomic absorption spectroscopy (PerkinElmer Analyst 800) of dried bone tissue (bone marrow-flushed femur and tibia) as previously published^69.
The bone turnover markers C-terminal telopeptide (CTX) and pro-collagen type I N-terminal peptide (P1NP) were measured in the serum using ELISAs (IDS, Germany). Serum dickkopf-1 and BMP-2 were measured using ELISAs from R&D Systems (Germany). Mouse sclerostin was measured with an ELISA from Alpco (USA). Serum ferritin and iron were measured using routine methods for clinical analyses on a Roche Modular PPE analyzer. The transferrin saturation was determined using a total iron binding capacity kit from Randox.

Setting [2] is: wild type mice, systemic Tfr2-ECD, n = 8, means ± SD.

Entries after “also recorded” stand apart in the source; their conditions may differ.

B1: Tfr2-ECD: Recombinant full-length extracellular domain (aa 103-798) of murine Tfr2, His-tagged, expressed in Sf9 insect cells (protein, listed as Mus musculus)
chain: RGSCQACGDSVLVVDEDVNPEDSGRTTLYWSDLQAMFLRFLGEGRMEDTIRLTSLRERVAGSARMATLVQDILDKLSRQKLDHVWTDTHYVGLQFPDPAHANTLHWVDADGSVQEQLPLEDPEVYCPYSATGNATGKLVYAHYGRSEDLQDLKAKGVELAGSLLLVRVGITSFAQKVAVAQDFGAQGVLIYPDPSDFSQDPHKPGLSSHQAVYGHVHLGTGDPYTPGFPSFNQTQFPPVESSGLPSIPAQPISADIADQLLRKLTGPVAPQEWKGHLSGSPYRLGPGPDLRLVVNNHRVSTPISNIFACIEGFAEPDHYVVIGAQRDAWGPGAAKSAVGTAILLELVRTFSSMVSNGFRPRRSLLFISWDGGDFGSVGATEWLEGYLSVLHLKAVVYVSLDNSVLGDGKFHAKTSPLLVSLIENILKQVDSPNHSGQTLYEQVALTHPSWDAEVIQPLPMDSSAYSFTAFAGVPAVEFSFMEDDRVYPFLHTKEDTYENLHKMLRGRLPAVVQAVAQLAGQLLIRLSHDHLLPLDFGRYGDVVLRHIGNLNEFSGDLKERGLTLQWVYSARGDYIRAAEKLRKEIYSSERNDERLMRMYNVRIMRVEFYFLSQYVSPADSPFRHIFLGQGDHTLGALVDHLRMLRADGSGAASSRLTAGLGFQESRFRRQLALLTWTLQGAANALSGDVWNIDNNF
modifications: His tag
notes: Recombinant full-length extracellular domain (aa 103-798) of murine Tfr2, His-tagged, expressed in Sf9 insect cells
For the molecule B1, the “Binding of BMPs-2, 4 and 6 to Tfr2-ECD at high salt concentrations” value with BMPs-2, 4, 6 and 7 (500 mM NaCl in running buffer) is “at a lower level”. In the data set on BMPs-2, 4, 6 and 7 (BMP ligands 50 nM, 1 mg/ml holo-Tf), the “Binding of BMPs to immobilized Tfr2-ECD compared with holo-transferrin” value is “more avidly than holotransferrin”. Besides, in the data set on BMPs-2, 4, 6 and 7 (BMP-2 vs holo-Tf), the “Binding of BMP-2 to Tfr2 relative to that of holo-Tf” value is on record as “more than 10 fold”. Moreover, in data set [1] (systemic Tfr2-ECD treatment, 2 week treatment period), the “Adverse effects on blood counts, iron parameters, bone homeostasis or gross morphology of internal organs” value was “No adverse effects; also recorded: did not show adverse effects”. In data set [1] (setting [2]), the “Differential counts, Lymphocytes” value turned out to be 90.1 ± 4.35%; the “Differential counts, Monocytes” value was found to be 2.17 ± 2.55%; the “Differential counts, Neutrophils” value turned out to be 7.33 ± 2.82%; the HCT is reported as 0.51 ± 0.02. For the same molecule, in data set [1] (setting [2]), the Heart iron is on record as 207.8 ± 54.1 μg/g dry tissue, the Hemoglobin was 9.77 ± 0.41 mmol/L, the Kidney iron was determined as 112.6 ± 15.0 μg/g dry tissue and the Liver iron is 578.3 ± 273^ μg/g dry tissue. For the same molecule, in data set [1] (setting [2]), the Plasma iron was 30.1 ± 3.3 µmol/L, the Platelets was 385 ± 69.5 10^9/L, the RBC is on record as 10.1 ± 0.40 10^12/L and the Reticulocytes is listed as 197 ± 24.2 10^9/L. Also, in data set [1] (setting [2]), the Spleen iron is on record as 620.2 ± 113^ μg/g dry tissue, the WBC is given as 11.0 ± 3.09 10^9/L, the “μCT BV/TV Femur” value came out at 10.7 ± 3.09% and the “μCT BV/TV Vertebrae” value is on record as 24.1 ± 3.36%.
